Molecular target: human telomerase (active telomerase from HeLa cell nuclear extract; catalytic subunit hTERT) (human) (UniProt O14746)
Assay: cell-based or functional assay

Sequence of human telomerase (active telomerase from HeLa cell nuclear extract; catalytic subunit hTERT) (human) (O14746 whole entry): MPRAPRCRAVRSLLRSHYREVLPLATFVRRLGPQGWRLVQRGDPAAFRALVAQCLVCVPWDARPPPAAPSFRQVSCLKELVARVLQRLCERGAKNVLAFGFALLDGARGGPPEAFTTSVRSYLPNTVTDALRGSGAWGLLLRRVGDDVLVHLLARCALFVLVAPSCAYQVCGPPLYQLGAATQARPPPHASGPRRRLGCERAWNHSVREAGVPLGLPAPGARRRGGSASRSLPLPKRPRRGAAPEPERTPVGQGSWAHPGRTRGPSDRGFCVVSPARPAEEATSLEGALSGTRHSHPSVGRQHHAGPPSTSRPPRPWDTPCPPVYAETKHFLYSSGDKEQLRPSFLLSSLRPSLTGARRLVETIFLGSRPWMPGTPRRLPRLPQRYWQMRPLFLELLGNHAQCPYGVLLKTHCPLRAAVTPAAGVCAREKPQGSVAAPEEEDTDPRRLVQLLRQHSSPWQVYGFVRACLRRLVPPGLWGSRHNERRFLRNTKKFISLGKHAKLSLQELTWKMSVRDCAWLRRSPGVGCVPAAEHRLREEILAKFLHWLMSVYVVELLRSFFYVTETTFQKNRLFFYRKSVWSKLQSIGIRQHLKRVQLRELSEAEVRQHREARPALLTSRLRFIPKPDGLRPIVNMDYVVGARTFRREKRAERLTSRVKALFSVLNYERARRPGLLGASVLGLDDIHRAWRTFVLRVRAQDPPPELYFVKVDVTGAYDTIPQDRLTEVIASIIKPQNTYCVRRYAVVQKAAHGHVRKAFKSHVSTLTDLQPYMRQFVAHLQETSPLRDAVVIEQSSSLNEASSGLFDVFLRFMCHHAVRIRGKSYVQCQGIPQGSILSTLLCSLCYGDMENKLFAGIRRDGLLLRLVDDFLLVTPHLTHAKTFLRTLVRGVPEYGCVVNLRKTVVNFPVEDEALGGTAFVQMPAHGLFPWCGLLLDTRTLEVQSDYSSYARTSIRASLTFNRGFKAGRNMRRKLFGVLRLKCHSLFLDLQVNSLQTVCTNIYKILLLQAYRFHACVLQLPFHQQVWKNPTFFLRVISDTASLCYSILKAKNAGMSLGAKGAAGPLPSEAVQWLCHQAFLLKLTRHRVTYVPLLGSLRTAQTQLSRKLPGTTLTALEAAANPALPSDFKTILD

telomerase activity immunoprecipitated by antibodies to SEQ ID No 7: 70%
Substance: EST1-0732 (human EST1 protein of SEQ ID No 2) (from UniProt Q86US8 1-1419)

Source: patent US20040171000A1
